# Measured values taken from patent US12472269B2, “Liver-specific inducible promoters and methods of use thereof” (ASKBIO INC., priority 2019, dated 2025).
# B1: PB1-MinTK: promoter: single mouse PBREM element and MinTK minimal promoter, SEQ ID NO: 7 (nucleic acid)
# DNA: TCTGTACTTTCCTGACCTTGGCACAGTGCCACCATCAACTTGCCTGACACCGATCCGGCCCCGCCCAGCGTCTTGTCATTGGCGAATTCGAACACGCAGATGCAGTCGGGGCGGCGCGGTCCGAGGTCCACTTCGCATATTAAGGTGACGCGTGTGGCCTCGAACACCGAGCGACCCTGCAGCGACCCGCTTAACAGCGTCAACAGCGTGCCGCAGATCTCGAGGAGCTTGGCGAGATTTTCAGGAGCTAAGGAAGCTAAAC
# modifications: PB1-MinTK
# Columns and labels:
# Type in all cases: cell-based, human
# Huh7 cells = experiment: EPO expression (ELISA of medium) from PB1-MinTK in Huh7 cells with CAR-containing plasmid, induction by CITCO
# Description: • Huh7 cells which are a human liver cell line • DPBS: without CaCl2, without MgCl2 (Gibco, 14190-094) • DMEM (Sigma, D6546) • FBS (Sigma, F9665) • Pen-Strep (Sigma, P4333) • Promega Fugene-HD (E2311) • TCPOBOP (Sigma, T2320) • CITCO (Cayman Chemicals Company, 16027) • pcDNA6 plasmid which contains the β-galactosidase gene used as internal control for transfection efficiency (Thermofisher, V22020) • mouse CAR expression plasmid from Jouan et al, 2016 (BioCat GmbH, EX-Z4288-M51-10-GC). This was used as Huh7 is CAR deficient. • β-galactosidase substrate solution (Thermofisher, 75707/75710) • Pierce BCA kit (23225) • LARII (Dual Luciferase Reporter 1000 assay system, Promega, E1980) • EPO ELISA kit (Abcam, ab119522) Method: Day 1 • Cells were seeded onto a 48 well plate at a density of 25,000 cells/300 μl Day 2 • On the day of transfection, DNA to be transfected (CAR plasmid/PB1-MinTK operably linked with luciferase or EPO/pcDNA6 plasmid for internal control) was diluted to a 100 ng/μl stock solution. Per 48 Well Transfection: • 45 ng of DNA (15 ng of each plasmid, pcDNA6, CAR and test plasmid) was mixed with 4.1 μl of Optimem medium. • 0.5 μl of Fusion HD was mixed with 4 μl of Optimem medium. • These 2 solutions were mixed and incubated at room temperature for 15 minutes. • The final solution was then added to the well drop wise. • 3 hrs after transfection, the inducer TCPOBOP was added to the appropriate wells at the indicated concentration. Day 3 • 24 hrs after induction the media was removed from the cells. • The cells were washed once in 300 μl of DPBS • Cells were lysed using 100 μl of passive lysis buffer and incubation with rocking for 15 minutes • The cell debris was pelleted by centrifugation of the plate at max speed in a benchtop centrifuge for 1 min • For luciferase, 10 μl sample was transferred into white 96-well plate and luminescence measured by injection of 50 μl of LARII substrate. • β-galactosidase activity was measured as per manufacturer's instructions (Mammalian β-Galactosidase Assay Kit, 75707/75710, Thermo Scientific) using 25 μl of lysate. 25 μl of lysate was transferred into a microplate well and mixed with 25 μl of β-galactosidase Assay Reagent, equilibrated to room temperature. The mixture was incubated at 37° C. for 30 min and absorbance measured at 405 nm. • Protein concentration was measured as per manufacturer's instructions (Pierce™ BCA Protein Assay Kit, 23225/23227, Thermo Scientific) using 25 μl of lysate. 25 μl of lysate was transferred into a microplate well and mixed with 200 μl of working solution. The mixture was incubated at 37° C. for 30 min, cooled to room temperature and then absorbance measured around 562 nm. The protein concentration was calculated with respect to protein standard curve prepared from assaying standards with known protein concentration.
# Transfections with PB1-MinTk-EPO were performed as described above with the exception that EPO is secreted into the medium. Therefore, medium was collected, and EPO concentration measured as per manufacturer's instructions (ab119522 Erythropoietin (EPO) Human ELISA Kit, Abcam) using an ELISA assay. 50 μl of medium was transferred to a pre-washed microplate wells and mixed with 50 μl of 1× Biotin Conjugated Antibody. The mixture was incubated at room temperature for 1 hour. The wells were washed, 100 μl of Streptavadin-HRP was added and the plate was incubated at room temperature for 15 minutes. The wells were washed and then 100 μl of TMB Substrate Solution. The mixture was incubated at room temperature for 10 minutes. The enzyme reaction was stopped by addition of 100 μl of Stop Solution and absorbance was read at 450 nm. The EPO concentration was calculated with respect to EPO standard curve prepared from assaying standards with known EPO concentration.
# The PB1-MinkTK promoter was then used to drive expression of the protein EPO, which is of therapeutic interest. […]
# AXOL ARE-hepatocytes = experiment: Luciferase expression from PBREM promoters in AXOL ARE-hepatocytes, induction by CITCO; settings: 1 μM CITCO
# [1] = test system: Huh7 and ARE primary cells; experiment: Effect of AAV ITRs: pAAV constructs transfected into Huh7 and ARE primary cells, compared with pGL4.10; settings: mean of 3 biological replicates
# Description: Following from Example 3, it was decided to take PB1-MinTK and PB1-2-MinTk forward for in vivo studies. To facilitate this the two aforementioned constructs were cloned into pAAV vector (Takara, Clontech) to allow for the preparation of AAV viruses. The inserts where cloned using restriction digest of the pAAV plasmid and PCR amplification of the original pGL4.10 constructs.
# We investigated the effect of the Inverted Terminal Repeats (ITRs) on the activity of the promoters. This was done as we have observed interference from the AAV ITRs in other projects. To this end, the pAAV-PB1-MinTk and pAAV-PB1-2-MinTk were transfected into Huh7 and ARE primary cells as previously described and their activity assessed.
# AXOL ARE hepatocytes = experiment: Luciferase expression from pAAV constructs in AXOL ARE hepatocytes without CITCO, with CITCO and after CITCO withdrawal; settings: pAAV vector
# Experimental: Luciferase expression from the PB1-MinTK and PB1-2-MinTK constructs in the pAAV vector in AXOL ARE hepatocytes is inducible by CITCO (1 μM) but reduces after removing CITCO as shown in FIG. 5.
molecule,measurement,setting,value
B1,overall EPO expression level relative to CMV-IE,Huh7 cells; CITCO induced (data not shown),around 22%
same,EPO production,Huh7 cells; addition of up to 2 μM CITCO,marked increase in the production of EPO
same,EPO expression,Huh7 cells; highest concentration of CITCO (3 μM),returns towards baseline activity
same,EPO expression,Huh7 cells; no addition of the drug (DMSO),very little expression of EPO
same,expression level compared to CMV-IE,AXOL ARE-hepatocytes,20%
same,induction of luciferase expression,AXOL ARE-hepatocytes; readout 24 hrs after induction,around 7 fold
same,induction of luciferase expression across pGL4.10 and pAAV vectors and cell types,[1],comparable across vectors and cell types
same,luciferase expression with CITCO,AXOL ARE hepatocytes; CITCO (1 μM),inducible
same,activity of the promoter after removal of CITCO,AXOL ARE hepatocytes; CITCO withdrawal,almost baseline levels
